Here are results for six sequences from the DeepSol protein solubility set.

The series in a line: soluble on expression in E. coli; label from the status in PepcDB or PDB records.
In the case of “STTLTHRARRTEISKNSEKKMESEEDSNWEKSPDNEDSGDSKDIRLTLMEEVLLLGLKDKEGYTSFWNDCISSGLRGGILIELAMRGRIYLEPPTMRKKRLLDRKVLLKSDSPTGDVLLDETLKHIKATEPTETVQTWIELLTGETWNPFKLQYQLRNVRERIAKNLVEKGILTTEKQNFLLFDMTTHPVTNTTEKQRLVKKLQDSVLERWVNDPQRMDKRTLALLVLAHSSDVLENVFSSLTDDKYDVAMNRAKDLVELDPEVEGTKPSATEMIWAVLAAFNKS”, the “soluble on expression in E. coli” value is recorded as “soluble”.
As for “MAHHHHHHMSLNLAEAADERSQREMEKYLVERVAGQGTFGTVQLAREKNTGVNVAIKKVIQDPRFKNRELQIMQDLSRLRHPNIVLLKNYFYTVLGDHRHNDVYLNVVMEFVPDTLHRVCRAYYRRLASPPMILVKVFMYQLLRGIACLHLPAVNVCHRDIKPHNVLVDESTGDLKLCDFGSAKKLSPSEPNVAYICSRYYRAPELIFGNQYYSTAVDVWSVGCIFAEMLLGEPIFCGENTSGQLREIVRVLGRPSREELHKLSTSNVELNVPTNKSTPWEDVFKRPLPAEVYDLCAKIFKYLPEQRITPLEAICHPFFDELHDATVKLPSGNALPAHLFTFLPEEINEMTEAQRSQLVQK”, the “soluble on expression in E. coli” value is “soluble”.
The result for “MSLAQKISATPAAGAQMTLAQADGIAFRELSFPEALKRAEVEDKLLFVDCFTTWCGPCKRLSKVVFKDSLVADYFNRHFVNLKMDMEKGEGVELRKKYGVHAYPTLLFINSSGEVVYRLVGAEDAPELLKKVKLGVESGGLSGLKKRYEAGDRDLAFICGYINALSAANREQEAGKVAADFLQGSEQKMLEDEDYFLVFYYYVHDVNSSAFQYAVNHKKEITDKFPRQAASLDRRLLEDWIAGSYAYLKVDESNHCTFDEQGLDAYVAKMKQMNVAEADMIGESLRLSRDGIMKQWDSFVKRGDKILASHTILGDEGHLLQWVNWLNKECADMSLREKAAQWCDKACEELIKKNEEIKKNLPPGAIPAISMVDHKGQLLQVAEKLRKLMQQSEGHHHHHH” reads “soluble”.
On to “GMEVNQPDIVAQVQAAFVEYERALVENDIEAMNALFWHTPETVRYGIAEVQHGGEAIRAWRERCEPVPKSRKLHRTVVTTFGTDFATVSTEFTSDATPLLGRQMQTWARLSPADGWKIVAAHVSLIAMP”, for which the “soluble on expression in E. coli” value is recorded as “soluble”.
The result for “MAEVFVGPVAQGYASGEVTVLLASPRSFCAGVERAIETVKRVLDVAEGPVYVRKQIVHNTVVVAELRDRGAVFVEDLDEIPDPPPPGAVVVFSAHGVSPAVRAGADERGLQVVDATCPLVAKVHAEAARFAARGDTVVFIGHAGHEETEGTLGVAPRSTLLVQTPADVAALNLPEGTQLSYLTQTTLALDETADVIDALRARFPTLGQPPSEDICYATTNRQRALQSMVGECDVVLVIGSCNSSNSRRLVELAQRSGTPAYLIDGPDDIEPEWLSSVSTIGVTAGASAPPRLVGQVIDALRGYASITVVERSIATETVRFGLPKQVRAQ” reads “not soluble”.
In the case of “MICFCAERFQWRRLWQIPGDLLFPGPADMARALLYRRPTEPSTIPVRHGSQFFAVRIRRHRRARRYTLRIHPSDREAILTMPPRGTLADAKEFAQRHGAWIAARLGRLPKAAPFLPGTLVPLRGHDHKIVHRTGRGTVWTEVRESGEKILCVAGETEHIERRVLDFLKREARKDLQKACDRYAPELGVKVTRLSIRDQSSRWGSCTSAGSLSFSWRLILAPSYVLDYLAAHEVAHLVEMNHSARFWRVVGKVCPQMERAKTWLDSYGNDLHRYGISDLEHHHHHH”, the “soluble on expression in E. coli” value was “soluble”.
